Measured values as given in patent US20100278834A1.

Columns and labels:
[1] = biological target: H5 hemagglutinin (HA) of H5N1 influenza A virus, strain not stated (influenza A virus (H5N1), strain not stated); experiment: cross-inhibition of binding to HA; competitor: FLD20.19
[2] = biological target: hemagglutinin of H5N1 clade 2.2 strain TY/TY/1/05 (influenza A virus TY/TY/1/05 (H5N1)); experiment: cell-based or functional assay
[3] = biological target: hemagglutinin of A/Indonesia/5/05 (H5N1, clade 2) (influenza A virus A/Indonesia/5/05 (H5N1)); experiment: cell-based or functional assay
[4] = biological target: hemagglutinin of A/Vietnam/1203/04 (H5N1) (influenza A virus A/Vietnam/1203/04 (H5N1)); experiment: cell-based or functional assay
[5] = biological target: hemagglutinin of H5N1 clade 1 strain A/Hong Kong/213/03 (influenza A virus A/Hong Kong/213/03 (H5N1)); experiment: cell-based or functional assay
[6] = biological target: hemagglutinin of H5N1 clade 2.2 strain WS/Mong/244/05 (influenza A virus WS/Mong/244/05 (H5N1)); experiment: cell-based or functional assay
[7] = biological target: hemagglutinin of H5N1 clade 1 strain VN/1194.04 (influenza A virus VN/1194.04 (H5N1)); experiment: cell-based or functional assay
[8] = biological target: hemagglutinin of H5N1 clade 2.3 strain Anhui/1/05 (influenza A virus Anhui/1/05 (H5N1)); experiment: cell-based or functional assay
[9] = biological target: H5 hemagglutinin (HA) of H5N1 influenza A virus, strain not stated (influenza A virus (H5N1), strain not stated); experiment: cross-inhibition of binding to HA; competitor: FLA3.14
[10] = biological target: H5 hemagglutinin (HA) of H5N1 influenza A virus, strain not stated (influenza A virus (H5N1), strain not stated); experiment: cross-inhibition of binding to HA; competitor: FLD194
[11] = biological target: hemagglutinin of H5N1 clade 1 strain HK/491/97 (influenza A virus HK/491/97 (H5N1)); experiment: cell-based or functional assay

B1: FLA3.14 (antibody, V domains shown)
VH: EVQLVQSGAEVKKPGESLKISCQASGYSFTSRWIGWVRQMPGKGLEWVGFIYPSDSDVRYSPSFRGQVTISADKSISTAYLQWSSLKASDTAMYFCARLGGNKDYGDYLWYFDLWGRGALVTVSS
VL: EIVMTQSPDTLSVSPGERATLSCRASQSVNRRLAWYQQKPGQAPRLLIHDASTRATGIPARFSGSGSGTEFTLTISSLQSEDFAVYYCQQYDNWLSFGQGTRLEIK
- Inhibition of binding (%) [1]: 0%
- IC50, neutralisation of retroviral pseudotypes [2]: 0.076 µg/mL
- IC50, neutralisation of retroviral pseudotypes [3]: 0.012 µg/mL
- IC50, neutralisation of retroviral pseudotypes [4]: 0.065 µg/mL
- IC50, neutralisation of retroviral pseudotypes [5]: 0.033 µg/mL
- IC50, neutralisation of retroviral pseudotypes [6]: 0.067 µg/mL
- IC50, neutralisation of retroviral pseudotypes [7]: 0.086 µg/mL
- IC50, neutralisation of retroviral pseudotypes [8]: 0.172 µg/mL
- Inhibition of binding (%) [9]: 100%
- Inhibition of binding (%) [10]: 100%

B2: FLA5.10 (antibody, V domains shown)
VH: QVQLVQSGAEVKEPGSAMKVSCKASGGTFSSDAFCWVRQAPGRGLEWMGGIIPVFQTANYGPNFQGRVTISADVYTTTLYLELSGLTSEDTAVYFCARSGDGYNYYFPLWGQGTLVTVSS
VL: DIQMTQSPSTLSGSVGDRVTITCRASQNIGPWLAWYQQESGKAPKLLISRASILESGVPSRFSGTGTGTEFTLTISSLQPDDFATYYCQHYNAYWGTFGQGTKVEIN
- Inhibition of binding (%) [1]: 100%
- IC50, neutralisation of retroviral pseudotypes [4]: 0.024 µg/mL
- IC50, neutralisation of retroviral pseudotypes [5]: 0.0025 µg/mL
- IC50, neutralisation of retroviral pseudotypes [7]: 0.026 µg/mL
- Inhibition of binding (%) [9]: 0%
- Inhibition of binding (%) [10]: 100%

B3: FLD129 (antibody, V domains shown)
VH: EVQLVESGGGLVQPGRSLRLSCAASGFTFSDFWMSWVRQAPGKGLEWVANIDQDGNERFYADSVKGRFTISRDNAKNSLYLQMTSLRADDTAVYYCARDGREGYFYGSGSFYNLKGLNWGQGTLLTVSS
VL: QSVLTQPPSVSAAPGQRVTISCSGTSSNIGKNYVSWYQQLPGAAPKLLIYDNDKRPSGIPDRFSGSKSGTSATLGITGLQTGDEADYYCGTWDSSLSVGMFGGGTRLTVL
- Inhibition of binding (%) [1]: 100%
- IC50, neutralisation of retroviral pseudotypes [2]: 0.006 µg/mL
- IC50, neutralisation of retroviral pseudotypes [3]: 0.678 µg/mL
- Reciprocal neutralising titre of culture supernatant (reciprocal titre) [3]: < 8
- IC50, neutralisation of retroviral pseudotypes [4]: 0.0017 µg/mL
- Reciprocal neutralising titre of culture supernatant (reciprocal titre) [4]: 323
- IC50, neutralisation of retroviral pseudotypes [5]: 0.0005 µg/mL
- IC50, neutralisation of retroviral pseudotypes [6]: 0.003 µg/mL
- IC50, neutralisation of retroviral pseudotypes [7]: 0.0012 µg/mL
- Reciprocal neutralising titre of culture supernatant (reciprocal titre) [11]: 1450
- IC50, neutralisation of retroviral pseudotypes [8]: 0.016 µg/mL
- Inhibition of binding (%) [9]: 0%
- Inhibition of binding (%) [10]: 100%

B4: FLD93 (antibody, V domains shown)
VH: WWQLVQSGAEVKKPGSSVKVSCKASGGTFSSYDISWVRQAPGQGLEWMGGIIPIYGTANYAQKFQGRVTITADESTSTAYMELSSLRSEDTAVYYCARAGGDSSGYYGALGRFFQHWGQGTLVTVSS
VL: VIWMTQSPSLLSASTGDRVTISCRMSQGISSYLAWYQQKPGKAPELLIHTAYTLKSGVPSRFSGSGSGKDFTLTISGLQSEDFATYYCQQYYSFPYTFGQGTKVEIK
- Inhibition of binding (%) [1]: 100%
- IC50, neutralisation of retroviral pseudotypes [2]: 0.013 µg/mL
- IC50, neutralisation of retroviral pseudotypes [3]: 0.059 µg/mL
- Reciprocal neutralising titre of culture supernatant (reciprocal titre) [3]: 406
- IC50, neutralisation of retroviral pseudotypes [4]: 0.048 µg/mL
- Reciprocal neutralising titre of culture supernatant (reciprocal titre) [4]: 40
- IC50, neutralisation of retroviral pseudotypes [5]: 0.011 µg/mL
- IC50, neutralisation of retroviral pseudotypes [6]: 0.011 µg/mL
- IC50, neutralisation of retroviral pseudotypes [7]: 0.022 µg/mL
- Reciprocal neutralising titre of culture supernatant (reciprocal titre) [11]: 20
- Inhibition of binding (%) [9]: 0%
- Inhibition of binding (%) [10]: 0%

B5: FLD127 (antibody, V domains shown)
VH: QVQLVESGGGVVQPGRSLRLSCAASGFTFSSYGMHWVRQAPGKGLEWVAVIWYDGDNKYYGDSVKGRFTISRDNSKNTLFLQMNSLRAEDTAVYYCAKDTADHGDYVDLGFFDAWGQGTLVTVSS
VL: DIQMTQSPSSVSASVGDRVTITCRASQDVSTWLAWYQLKPGKAPKLLIYAASSLQSGVPSRFSGSGSGTDFTLTVSSLQPEDFATYYCQQANSFPFTFGPGTKVDIK
- Inhibition of binding (%) [1]: 100%
- Reciprocal neutralising titre of culture supernatant (reciprocal titre) [3]: < 8
- IC50, neutralisation of retroviral pseudotypes [4]: 0.013 µg/mL
- Reciprocal neutralising titre of culture supernatant (reciprocal titre) [4]: 81
- IC50, neutralisation of retroviral pseudotypes [5]: 0.75 µg/mL
- IC50, neutralisation of retroviral pseudotypes [7]: 0.019 µg/mL
- Reciprocal neutralising titre of culture supernatant (reciprocal titre) [11]: 102
- Inhibition of binding (%) [9]: 0%
- Inhibition of binding (%) [10]: 0%

B6: FLD132 (antibody, V domains shown)
VH: EVQLVQSGAELKMPGESLKISCKASGYTFTNYWIGWVRQTPGKGLEWMGIIFPPDSQTSYSPSFQGQVTFSVDNSISVAYIQWSSLKASDTAIYYCARSGIFDWSAPLVEAFDIWGQGTVVTVSS
VL: DIQLTQSPSFLSASVGDGVTITCRASQDIYIYLAWYQQKPGKAPKLLIYAASTLQGGVPSRFSGSGSGTEFTLTINNLQPEDFATYFCQQLNGYPLTFGGGTKVEIK
- Inhibition of binding (%) [1]: 0%
- IC50, neutralisation of retroviral pseudotypes [2]: 0.001 µg/mL
- Reciprocal neutralising titre of culture supernatant (reciprocal titre) [3]: < 8
- IC50, neutralisation of retroviral pseudotypes [4]: 0.001 µg/mL
- Reciprocal neutralising titre of culture supernatant (reciprocal titre) [4]: 1024
- IC50, neutralisation of retroviral pseudotypes [5]: 0.0005 µg/mL
- IC50, neutralisation of retroviral pseudotypes [6]: 0.001 µg/mL
- IC50, neutralisation of retroviral pseudotypes [7]: 0.0016 µg/mL
- Reciprocal neutralising titre of culture supernatant (reciprocal titre) [11]: 2048
- IC50, neutralisation of retroviral pseudotypes [8]: 1.8 µg/mL
- Inhibition of binding (%) [9]: 0%
- Inhibition of binding (%) [10]: 52%

B7: FLD84 (antibody, V domains shown)
VH: QVQLQESGPGLVKPSETLSLICAVSGASISSSYWSWIRQPPGKGLEWIGYIYYSGVTKYNPSLKSRVTLSVDTSKNHFSLKLSYVTAADTAVYYCARNLPDIAVVTAVQDATPVWFDPWGPGTLVSVSS
VL: DIQLTQSPSSLSASVGDRVTITCRASQGIITYLNWYQQKPGKAPKLLIYATYSLQNGVPSRFSGSGSGTDFTLTISSLQPEDFATYYCQQSYSSLMFTFGQGTKLDIK
- Inhibition of binding (%) [1]: 100%
- IC50, neutralisation of retroviral pseudotypes [2]: 0.032 µg/mL
- IC50, neutralisation of retroviral pseudotypes [3]: 0.03 µg/mL
- Reciprocal neutralising titre of culture supernatant (reciprocal titre) [3]: 102
- IC50, neutralisation of retroviral pseudotypes [4]: 0.042 µg/mL
- Reciprocal neutralising titre of culture supernatant (reciprocal titre) [4]: 16
- IC50, neutralisation of retroviral pseudotypes [5]: 0.014 µg/mL
- IC50, neutralisation of retroviral pseudotypes [6]: 0.03 µg/mL
- IC50, neutralisation of retroviral pseudotypes [7]: 0.017 µg/mL
- Reciprocal neutralising titre of culture supernatant (reciprocal titre) [11]: 40
- IC50, neutralisation of retroviral pseudotypes [8]: 0.118 µg/mL
- Inhibition of binding (%) [9]: 0%
- Inhibition of binding (%) [10]: 0%

B8: FLD122 (antibody, V domains shown)
VH: QFQLVQSGPEVKKPGTSVKVSCKASGYTSTTYGISWVRQVPGQGLEWMGWINPYNGNPHYGQKFQGRVTLTRDTSTNTAYLEILSLRSDDTAVYYCARDGWGQQLVPYYFDYWGQGTLVTVSS
VL: DIVMTQSPLSLPVTPGEPASISCRASQSLLHSNGYNYLDWYLQKPGQSPQLLIQLGSTRASGVPDRFSGSGSGTDFTLEISRVEAEDVGVYYCMQALQLPLAFGQGTRLEIK
- Inhibition of binding (%) [1]: 100%
- IC50, neutralisation of retroviral pseudotypes [2]: 0.008 µg/mL
- IC50, neutralisation of retroviral pseudotypes [3]: 0.004 µg/mL
- Reciprocal neutralising titre of culture supernatant (reciprocal titre) [3]: 362
- IC50, neutralisation of retroviral pseudotypes [4]: 0.005 µg/mL
- Reciprocal neutralising titre of culture supernatant (reciprocal titre) [4]: 40
- IC50, neutralisation of retroviral pseudotypes [5]: 0.002 µg/mL
- IC50, neutralisation of retroviral pseudotypes [6]: 0.006 µg/mL
- IC50, neutralisation of retroviral pseudotypes [7]: 0.006 µg/mL
- Reciprocal neutralising titre of culture supernatant (reciprocal titre) [11]: 161
- IC50, neutralisation of retroviral pseudotypes [8]: 0.019 µg/mL
- Inhibition of binding (%) [9]: 65%
- Inhibition of binding (%) [10]: 100%

B9: FLD20.19 (antibody, V domains shown)
VH: QVQLVQSGAEVKKPGSSVTVSCKASGGTFSNYGISWVRQAPGQGLDWMGGIIPLFGTANYAQKFQGRVTITADESTSSSNMELSSLRSEDTAVYYCARDVHNYDFLTGYPLHLYGMDVWGQGTTVTVSS
VL: DIQMTQSPSSLSASVGDRVTITCRASQSISTYLNWYQQKPGIPPKLLINVASSLQSGVPSRFSGSGSGTDFTLTISSLQPEDFASYYCQQTYSSPPTFGQGTKVEIK
- Inhibition of binding (%) [1]: 100%
- IC50, neutralisation of retroviral pseudotypes [2]: 0.01 µg/mL
- IC50, neutralisation of retroviral pseudotypes [3]: 0.077 µg/mL
- Reciprocal neutralising titre of culture supernatant (reciprocal titre) [3]: 813
- IC50, neutralisation of retroviral pseudotypes [4]: 0.016 µg/mL
- Reciprocal neutralising titre of culture supernatant (reciprocal titre) [4]: 181
- IC50, neutralisation of retroviral pseudotypes [5]: 0.01 µg/mL
- IC50, neutralisation of retroviral pseudotypes [6]: 0.004 µg/mL
- IC50, neutralisation of retroviral pseudotypes [7]: 0.013 µg/mL
- Reciprocal neutralising titre of culture supernatant (reciprocal titre) [11]: 181
- IC50, neutralisation of retroviral pseudotypes [8]: 0.104 µg/mL
- Inhibition of binding (%) [9]: 0%
- Inhibition of binding (%) [10]: 0%
